Series [1] has as its target T1, eIF4GI557-1599;eIF4A (human;human?, UniProt Q04637;P60842 557-1599;1-406, |). Nature of the series: fluorescence anisotropy; ATP; mRNA pre-bound by eIF4E•4E-BP1; 20 mM HEPES-KOH pH 7.5, 200 mM KCl, 1 mM MgCl2, 25 °C; 10 nM labeled mRNA; pre-assembly with 0.5 uM eIF4E and 1 uM 4E-BP1. The note with it: protein: recombinant;recombinant, tags: N-terminal 6xHis, TEV-cleaved;N-terminal His-MBP, copies: 1;1, label: 3' fluorescein, structured 5'UTR. In general terms: Fluorescence polarisation rises when a labelled molecule tumbles more slowly, as on binding a larger partner.

In series [2] the target is T1, eIF4GI557-1599;eIF4A. Nature of the series: fluorescence anisotropy; mRNA pre-bound by eIF4E•4E-BP1; 20 mM HEPES-KOH pH 7.5, 200 mM KCl, 1 mM MgCl2, 25 °C; 10 nM labeled mRNA; pre-assembly with 0.5 uM eIF4E and 1 uM 4E-BP1. The note with it: protein: recombinant;recombinant, tags: N-terminal 6xHis, TEV-cleaved;N-terminal His-MBP, copies: 1;1, label: 3' fluorescein, structured 5'UTR.

The target of series [3] is T2, eIF4GI557-1599 (human, UniProt Q04637 557-1599). Described as above. The note with it: protein: recombinant; tags: N-terminal 6xHis, TEV-cleaved; label: 3' fluorescein; structured 5'UTR.
The next series has as its target eIF4E;4E-BP1 (human;human, UniProt P06730;Q13541 1-217;1-118, |). As to the kind of experiment: fluorescence anisotropy; 20 mM HEPES-KOH pH 7.5, 200 mM KCl, 1 mM MgCl2, 25 °C; 10 nM labeled mRNA; pre-assembly with 0.5 uM eIF4E and 1 uM 4E-BP1. Conditions: protein: recombinant;recombinant, tags: N-terminal polyHis, TEV-cleaved;N-terminal 6xHis, copies: 1;1, label: 3' fluorescein, structured 5'UTR.

The target of a further series is 4E-BP1 (human, UniProt Q13541 1-118). The series is described as above. The note with it: protein: recombinant; tags: N-terminal 6xHis, TEV-cleaved; label: 3' fluorescein; structured 5'UTR.
The target of series [4] is T2, eIF4GI557-1599. Described as above. The note with it: protein: recombinant; tags: N-terminal 6xHis, TEV-cleaved; label: 3' fluorescein; structured 5'UTR.
The target of the next series is eIF4E (human, UniProt P06730 1-217). The description is as above. Conditions: protein: recombinant; tags: N-terminal polyHis, TEV-cleaved; label: 3' fluorescein; structured 5'UTR.
Series [5] concerns the target T2, eIF4GI557-1599. Nature of the series: fluorescence anisotropy; mRNA pre-bound by eIF4E•FITC-4E-BP1 peptide (label on peptide); text gives error 0.7; 20 mM HEPES-KOH pH 7.5, 200 mM KCl, 1 mM MgCl2, 25 °C; 10 nM labeled mRNA; pre-assembly with 0.5 uM eIF4E and 1 uM 4E-BP1. The note with it: protein: recombinant; tags: N-terminal 6xHis, TEV-cleaved; label: 3' fluorescein; structured 5'UTR.

Here are results for one molecule from publication PMC12774752, “4E-BP1 differentially regulates translation of a subset of human mRNAs” (The Journal of Biological Chemistry, 2025).

Broadly, the Kd is the concentration at which binding is half-saturated.

T2 sequence (Q04637 557-1599): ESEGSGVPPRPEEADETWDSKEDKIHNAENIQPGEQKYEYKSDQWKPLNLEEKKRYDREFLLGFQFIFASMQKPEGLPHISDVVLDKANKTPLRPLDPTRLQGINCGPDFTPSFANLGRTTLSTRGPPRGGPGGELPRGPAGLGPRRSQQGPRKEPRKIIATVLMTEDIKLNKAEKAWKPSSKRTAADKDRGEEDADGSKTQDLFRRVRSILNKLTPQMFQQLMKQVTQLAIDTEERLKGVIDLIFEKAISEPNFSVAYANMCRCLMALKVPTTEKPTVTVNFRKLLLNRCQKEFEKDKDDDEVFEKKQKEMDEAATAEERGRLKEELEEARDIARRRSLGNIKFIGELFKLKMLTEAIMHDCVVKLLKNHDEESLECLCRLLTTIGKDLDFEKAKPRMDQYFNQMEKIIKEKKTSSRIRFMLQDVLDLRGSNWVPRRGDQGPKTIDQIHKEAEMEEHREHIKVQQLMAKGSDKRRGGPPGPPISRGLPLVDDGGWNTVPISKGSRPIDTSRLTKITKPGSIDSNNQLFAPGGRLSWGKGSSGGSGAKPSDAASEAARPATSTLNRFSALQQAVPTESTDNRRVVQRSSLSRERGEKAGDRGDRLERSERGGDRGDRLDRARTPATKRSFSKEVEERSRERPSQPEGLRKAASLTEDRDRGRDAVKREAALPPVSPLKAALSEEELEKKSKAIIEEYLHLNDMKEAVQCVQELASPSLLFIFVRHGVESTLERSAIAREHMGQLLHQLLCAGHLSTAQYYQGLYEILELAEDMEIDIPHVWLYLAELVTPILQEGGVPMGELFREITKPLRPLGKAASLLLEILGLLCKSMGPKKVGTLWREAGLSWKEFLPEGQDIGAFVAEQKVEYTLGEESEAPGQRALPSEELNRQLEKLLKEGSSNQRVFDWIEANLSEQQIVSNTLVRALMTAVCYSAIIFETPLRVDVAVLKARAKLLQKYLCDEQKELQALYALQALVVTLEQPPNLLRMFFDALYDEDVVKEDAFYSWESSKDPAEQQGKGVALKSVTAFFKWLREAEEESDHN
T1 sequence (Q04637 557-1599, chain 1 of 2): as the sequence (Q04637 557-1599) above
T1 sequence (P60842 whole entry, chain 2 of 2): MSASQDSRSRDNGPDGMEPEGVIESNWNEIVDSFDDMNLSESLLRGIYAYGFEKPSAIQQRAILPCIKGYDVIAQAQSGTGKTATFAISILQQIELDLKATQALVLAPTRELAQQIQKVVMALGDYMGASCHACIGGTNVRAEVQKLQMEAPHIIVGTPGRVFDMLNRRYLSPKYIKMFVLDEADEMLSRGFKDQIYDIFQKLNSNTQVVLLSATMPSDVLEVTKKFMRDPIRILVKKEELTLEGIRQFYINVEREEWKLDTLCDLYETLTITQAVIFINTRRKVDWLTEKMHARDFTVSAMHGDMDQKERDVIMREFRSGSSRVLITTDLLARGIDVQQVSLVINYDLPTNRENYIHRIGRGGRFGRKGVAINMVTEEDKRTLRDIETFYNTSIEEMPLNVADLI
eIF4E;4E-BP1, sequence (P06730 whole entry, chain 1 of 2): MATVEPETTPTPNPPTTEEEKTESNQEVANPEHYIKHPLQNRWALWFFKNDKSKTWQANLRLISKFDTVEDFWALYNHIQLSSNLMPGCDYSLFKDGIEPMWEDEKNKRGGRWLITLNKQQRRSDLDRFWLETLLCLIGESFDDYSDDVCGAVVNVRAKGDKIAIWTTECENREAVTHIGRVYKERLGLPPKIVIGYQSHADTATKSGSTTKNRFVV
eIF4E;4E-BP1, sequence (Q13541 whole entry, chain 2 of 2): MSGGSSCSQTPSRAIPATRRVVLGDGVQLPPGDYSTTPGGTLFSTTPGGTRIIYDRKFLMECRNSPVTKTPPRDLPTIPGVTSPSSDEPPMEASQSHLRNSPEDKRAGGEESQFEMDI
eIF4E, sequence (P06730 whole entry): as the sequence (P06730 whole entry, chain 1 of 2) above
4E-BP1, sequence (Q13541 whole entry): as the sequence (Q13541 whole entry, chain 2 of 2) above

B1: ApppG p53B 5'UTR (structured_RNA)
RNA: AUGGAGGAGCCGCAGUCAGAUCCUAGCGUCGAGCCCCCUCUGAGUCAGGAAACAUUUUCAGACCUAUGGAAACUACUUCCUGAAAACAACGUUCUGUCCCCCUUGCCGUCCCAAGCA
modifications: 5' ApppG cap (non-functional)
For the molecule B1, the Kd was 21 ± 1.1 nM in the series with eIF4GI557-1599;eIF4A [1]; 28 ± 1.8 nM with eIF4GI557-1599;eIF4A [2]; 22 ± 0.8 nM in the series with eIF4GI557-1599 [3]; 89 ± 3.5 nM with eIF4E;4E-BP1; 66 ± 1.7 nM with eIF4GI557-1599 [4]; 159 ± 4.2 nM with eIF4E. For the same molecule, the Kd with eIF4GI557-1599 [5] was found to be 42 ± 2 nM. In addition, the binding result with 4E-BP1 is “no binding”.
